The record followed here is patent publication US20250289897A1 (Eli Lilly, published 2025).

The target in assay [1] is T1, human FcγRIIIA_158F (CD16a) extracellular domain (human, UniProt P08637 17-208).
T1 construct: extracellular domain
Description: SPR at 25 C (Biacore T200), antibody captured on Protein A chip, FcγR ECD as analyte, steady state; average of 3, SD 0.03.
Description: (§1) Briefly, the surfaces of all 4 flow cells were activated by injecting a 1:1 mixture of EDC/NHS for 7 minutes at 10 μL/minute. […] Un-reacted sites were blocked with a 7-minute injection of ethanolamine at 10 μL/minute. Injections of 2×10 μL of glycine pH 1.5 were used to remove any noncovalently associated protein.
(§2) For FcγRIIa, FcγRIIb, and FcγRIIIa binding, antibodies were diluted to 5 μg/mL in running buffer, and approximately 500 RU is captured in flow cells 2 through 4 (RUcaptured). FC1 is the reference flow cell. […] Duplicate injections of each concentration were injected over all FCs at 40 L/minute for 60 seconds followed by a 120 second dissociation phase. Regeneration was performed by injecting 15μL of 10 mM glycine pH 1.5 at 30 μL/minute over all FCs.
(§3) Reference-subtracted data was collected as FC2-FC1, FC3-FC1, and FC4-FC1. The measurements were obtained at 25° C. The affinity (KD) was calculated using the steady state equilibrium analysis with the Scrubber 2 Biacore® Evaluation Software.

The target in assay [2] is T2, neonatal Fc receptor (FcRn) on FcRn Affinity Column Gen2 (Roche, Cat #09430857001) (UniProt P55899 24-297; P61769 21-119, limits assumed). Description: FcRn-HPLC (Roche FcRn Affinity Column Gen2), peak width at 50% peak height.
Description: (§4) Stock antibody solutions were diluted to 1 mg/mL into 20 mM MES, 140 mM NaCl, pH5.5. […] 20 μμL antibody injections were made followed by 10 minute column wash with 20 mM MES, 140 mM NaCl, pH5.5. Antibodies were then eluted by pH gradient elution into 20 mM Tris, 140 mM NaCl, pH8.8 over 90 minutes. Chromatograms were blank-subtracted to remove baseline drift.
Assay [3] concerns the target T3, human FcγRIIb (CD32b) extracellular domain (human, UniProt P31994 43-217).
T3 construct: extracellular domain
T3 sequence (looked up): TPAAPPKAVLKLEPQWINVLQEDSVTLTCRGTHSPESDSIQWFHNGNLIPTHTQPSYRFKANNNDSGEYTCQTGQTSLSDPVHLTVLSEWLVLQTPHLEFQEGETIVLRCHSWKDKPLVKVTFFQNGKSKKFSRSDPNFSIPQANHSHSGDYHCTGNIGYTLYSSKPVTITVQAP
Description: SPR at 25 C (Biacore T200), antibody captured on Protein A chip, FcγR ECD as analyte, steady state; average of 3, SD 0.17.
Description: as §1, §2, §3

For assay [4], the target named is T4, human FcγRI (CD64) extracellular domain (human, UniProt P12314 16-292).
T4 construct: extracellular domain; also called FcγRI ECD
Description: SPR at 25 C (Biacore T200), antibody captured on Protein A chip, FcγR ECD as analyte; average of 3, SD 0.4.
Description: as §1
For FcγRI binding, antibodies were diluted to 2.5 g/mL in running buffer (1x HBS-EP+, Teknova P/N H8022), and approximately 150 RU of each antibody was captured in flow cells 2 through 4 (RUcaptured). FC1 was the reference flow cell, therefore, no antibody was captured in FC1. […] Duplicate injections of each concentration were injected over all FCs at 40 μL/minute for 120 seconds followed by a 1200 second dissociation phase. Regeneration was performed by injecting 15 μL of 10 mM glycine pH 1.5 at 30 μL/minute over all FCs. Reference-subtracted data was collected as FC2-FC1, FC3-FC1, and FC4-FC1. The measurements were obtained at 25° C. The affinity (KD) was calculated using either steady state equilibrium analysis with the Scrubber 2 Biacore® Evaluation Software or a “1:1 (Langmuir) binding” model in BIA Evaluation.

The target in assay [5] is T5, Human C1q (MS Biomedical) (human, UniProt P02745 23-245; P02746 28-253; P02747 29-245).
T5 construct: the three subunits are from general knowledge; also called complement component C1q; Clq
Description: C1q ELISA, plate coated with the antibody at 0.19-10 ug/mL, human C1q added at 10 ug/mL, sheep anti-human C1q-HRP detection, OD450.
Description: Testing was performed in duplicate wells. The plate was sealed and incubated overnight at 4° C. The coating reagent was removed from each well and 200 μL/well of casein blocking reagent (Thermo) was added. The plate was sealed and incubated for 2 hours at room temperature (RT). Each well was washed 3 times with wash buffer (1xTBE with 0.05% Tween 20). One hundred microliters per well of Human Clq (MS Biomedical) at 10 μg/mL diluted in casein blocking reagent was added and incubated for 3 hours at RT. The plate was then washed three times with wash buffer before 100 L/well of a 1:800 dilution of Sheep anti-human C1q-HRP (Abcam #ab46191) in casein blocker was added and incubated for 1 hour at RT. The plate was washed 6 times with wash buffer, and 100 μL/well of TMB Substrate (Pierce) was added to each well and incubated for 7 minutes. One hundred microliters of 1 N HCl was added to each well to stop the reaction.

The target of assay [6] is T2, neonatal Fc receptor (FcRn) on FcRn …. Description: FcRn-HPLC (Roche FcRn Affinity Column Gen2), pH gradient 5.5 to 8.8 over 90 minutes.
Description: as §4
Assay [7] addresses T6, Recombinant LEPR extracellular domain fused to hIgG1-Fc (human LEPR ECD-TEV-Fc) (human).
T6 construct: The entry holds ECD, TEV site, human IgG1 Fc and a His tag in one chain; also called LEPR-Fc; hLEPR-TEV-hIgG1Fc
Description: ELISA, plate coated with human LEPR ECD (SEQ ID NO:30) at 2 ug/mL, antibody titrated 1:3 from 50 ug/mL, goat anti-human kappa AP detection, OD560.
Description: The plate was then washed. Antibodies were titrated, starting at 50 μg/mL in Casein with 1:3 serial dilutions across the plate. Plate was incubated at RT for 1 hr. The plate is then washed.
The mixture was incubated at RT for 1 hr. The plate is then washed.
The curves indicate relative binding of IgG antibodies to human LEPR. The LEPR is bound to an ELISA plate and the antibodies are titrated in 3-fold increments starting at 50 μg/mL.

T2 sequence (P55899 24-297 limits assumed, chain 1 of 2): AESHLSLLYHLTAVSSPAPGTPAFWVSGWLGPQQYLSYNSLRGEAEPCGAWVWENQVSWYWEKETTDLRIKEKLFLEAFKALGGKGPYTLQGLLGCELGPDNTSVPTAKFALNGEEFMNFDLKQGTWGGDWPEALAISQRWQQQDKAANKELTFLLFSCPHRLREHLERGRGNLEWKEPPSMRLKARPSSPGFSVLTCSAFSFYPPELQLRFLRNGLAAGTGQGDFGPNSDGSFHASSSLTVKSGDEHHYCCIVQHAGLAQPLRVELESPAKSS
T2 sequence (P61769 21-119 limits assumed, chain 2 of 2): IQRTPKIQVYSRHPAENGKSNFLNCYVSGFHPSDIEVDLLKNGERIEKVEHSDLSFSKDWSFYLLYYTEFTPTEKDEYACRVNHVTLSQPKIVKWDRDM
T1 sequence (P08637 17-208): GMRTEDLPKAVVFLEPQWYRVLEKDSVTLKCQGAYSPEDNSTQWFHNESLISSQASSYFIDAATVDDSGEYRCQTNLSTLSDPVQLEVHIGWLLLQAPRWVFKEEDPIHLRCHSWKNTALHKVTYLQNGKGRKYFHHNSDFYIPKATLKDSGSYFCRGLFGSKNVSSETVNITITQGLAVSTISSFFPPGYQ
T5 sequence (P02745 23-245 limits assumed, chain 1 of 3): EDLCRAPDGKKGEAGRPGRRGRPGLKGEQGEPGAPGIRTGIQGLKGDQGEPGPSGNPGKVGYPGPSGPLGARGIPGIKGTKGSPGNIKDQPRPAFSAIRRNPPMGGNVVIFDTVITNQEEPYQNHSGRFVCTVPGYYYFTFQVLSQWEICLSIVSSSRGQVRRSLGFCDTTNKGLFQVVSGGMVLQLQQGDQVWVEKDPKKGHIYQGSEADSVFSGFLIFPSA
T5 sequence (P02746 28-253 limits assumed, chain 2 of 3): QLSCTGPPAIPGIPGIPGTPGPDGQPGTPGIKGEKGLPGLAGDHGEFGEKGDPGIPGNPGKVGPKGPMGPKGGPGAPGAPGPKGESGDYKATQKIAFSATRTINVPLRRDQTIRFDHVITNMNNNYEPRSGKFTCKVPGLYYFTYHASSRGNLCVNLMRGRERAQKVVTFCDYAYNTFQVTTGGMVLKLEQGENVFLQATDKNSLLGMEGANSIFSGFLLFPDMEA
T5 sequence (P02747 29-245 limits assumed, chain 3 of 3): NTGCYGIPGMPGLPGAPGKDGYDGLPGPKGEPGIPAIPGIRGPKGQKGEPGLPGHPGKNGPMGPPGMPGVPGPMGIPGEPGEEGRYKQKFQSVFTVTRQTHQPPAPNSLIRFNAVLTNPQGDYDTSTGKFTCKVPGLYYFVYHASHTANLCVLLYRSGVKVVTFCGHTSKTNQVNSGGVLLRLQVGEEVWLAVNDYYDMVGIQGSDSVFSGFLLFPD
T4 sequence (P12314 16-292): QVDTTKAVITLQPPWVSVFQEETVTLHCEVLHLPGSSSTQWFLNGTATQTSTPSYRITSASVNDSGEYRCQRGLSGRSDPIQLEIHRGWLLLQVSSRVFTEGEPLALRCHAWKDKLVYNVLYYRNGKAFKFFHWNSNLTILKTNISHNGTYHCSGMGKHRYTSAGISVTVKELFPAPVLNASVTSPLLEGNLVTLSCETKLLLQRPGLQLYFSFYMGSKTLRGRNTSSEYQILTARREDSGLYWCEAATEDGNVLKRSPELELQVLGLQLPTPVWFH
T6 sequence (chain, as listed by the source limits assumed): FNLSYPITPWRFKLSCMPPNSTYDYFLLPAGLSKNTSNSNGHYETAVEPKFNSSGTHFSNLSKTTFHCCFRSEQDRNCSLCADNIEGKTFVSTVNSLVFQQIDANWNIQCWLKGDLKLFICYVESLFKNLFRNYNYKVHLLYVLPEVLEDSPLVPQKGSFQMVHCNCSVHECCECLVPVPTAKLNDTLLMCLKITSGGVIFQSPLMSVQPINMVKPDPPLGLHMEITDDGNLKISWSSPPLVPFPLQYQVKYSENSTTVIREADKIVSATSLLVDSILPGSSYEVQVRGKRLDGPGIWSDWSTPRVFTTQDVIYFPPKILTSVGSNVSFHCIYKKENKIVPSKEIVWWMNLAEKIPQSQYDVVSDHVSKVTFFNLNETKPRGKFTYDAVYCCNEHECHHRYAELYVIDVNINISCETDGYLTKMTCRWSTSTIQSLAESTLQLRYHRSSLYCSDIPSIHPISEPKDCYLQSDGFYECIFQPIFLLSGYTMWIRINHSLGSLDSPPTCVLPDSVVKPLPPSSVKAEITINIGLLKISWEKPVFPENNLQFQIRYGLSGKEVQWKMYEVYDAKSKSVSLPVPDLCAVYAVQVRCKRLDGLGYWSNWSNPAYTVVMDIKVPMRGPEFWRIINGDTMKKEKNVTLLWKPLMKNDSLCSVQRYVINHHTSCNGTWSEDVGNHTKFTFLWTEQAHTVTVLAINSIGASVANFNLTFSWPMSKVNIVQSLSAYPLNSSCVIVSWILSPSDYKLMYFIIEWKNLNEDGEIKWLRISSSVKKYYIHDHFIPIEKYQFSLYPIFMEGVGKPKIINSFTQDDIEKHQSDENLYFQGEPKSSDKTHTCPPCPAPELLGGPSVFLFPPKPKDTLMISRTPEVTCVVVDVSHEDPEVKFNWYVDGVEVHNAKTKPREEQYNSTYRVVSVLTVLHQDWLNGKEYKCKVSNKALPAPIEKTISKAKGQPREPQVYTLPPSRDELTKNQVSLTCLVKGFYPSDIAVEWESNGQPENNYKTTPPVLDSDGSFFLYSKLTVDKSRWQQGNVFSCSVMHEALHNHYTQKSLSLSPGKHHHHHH

B1: Antibody A-IgG1 (antibody)
heavy: not shown
light: DIQMTQSPSFLSASVGDRVTITCRASQGISSSLAWYQQKPGKAPKLLIYTASTLQSGVPSRFSGSGSGTEFTLTISSLQPEDFATYYCQQLIYYPFTFGQGTKVEIKRTVAAPSVFIFPPSDEQLKSGTASVVCLLNNFYPREAKVQWKVDNALQSGNSQESVTEQDSKDSTYSLSSTLTLSKADYEKHKVYACEVTHQGLSSPVTKSFNRGEC
notes: there they lie 3 residues further on); also called Antibody A-IgG1 control; Antibody-A with non-modified IgG1
In the case of B1, the Kd is 1560 nM in assay [1], 3610 nM in assay [3] and 0.0676 nM in assay [4]. Further, the “Peak Width” value in assay [2] worked out at 1.7 min. Also, in assay [5], the “EC50 (read off the curve)” value was ~1 µg/mL. In assay [6], the “Retention Time” value worked out at 69.5 min.

B2: Antibody A IgG1-YTE (antibody)
heavy: EVQLLESGGGLVQPGGSLRLSCAASGFTFSSFAMSWVRQAPGKGLEWVSAISGSGGSTYSADSVRGRFTISRDNSKNTLYLQMNSLRAEDTAVYYCAKDQGDWDFLFDYWGQGTLVTVSSASTKGPSVFPLAPSSKSTSGGTAALGCLVKDYFPEPVTVSWNSGALTSGVHTFPAVLQSSGLYSLSSVVTVPSSSLGTQTYICNVNHKPSNTKVDKRVEPKSCDKTHTCPPCPAPELLGGPSVFLFPPKPKDTLYITREPEVTCVVVDVSHEDPEVKFNWYVDGVEVHNAKTKPREEQYNSTYRVVSVLTVLHQDWLNGKEYKCKVSNKALPAPIEKTISKAKGQPREPQVYTLPPSREEMTKNQVSLTCLVKGFYPSDIAVEWESNGQPENNYKTTPPVLDSDGSFFLYSKLTVDKSRWQQGNVFSCSVMHEALHNHYTQKSLSLSPGK
light: B1 light
On to B2, for which, in assay [2], the “Peak Width” value was 2.8 min. Further, the “Retention Time” value in assay [6] worked out at 80.3 min.

B3: Antibody A IgG4PAA-YTE (antibody)
heavy: EVQLLESGGGLVQPGGSLRLSCAASGFTFSSFAMSWVRQAPGKGLEWVSAISGSGGSTYSADSVRGRFTISRDNSKNTLYLQMNSLRAEDTAVYYCAKDQGDWDFLFDYWGQGTLVTVSSASTKGPSVFPLAPCSRSTSESTAALGCLVKDYFPEPVTVSWNSGALTSGVHTFPAVLQSSGLYSLSSVVTVPSSSLGTKTYTCNVDHKPSNTKVDKRVESKYGPPCPPCPAPEAAGGPSVFLFPPKPKDTLYITREPEVTCVVVDVSQEDPEVQFNWYVDGVEVHNAKTKPREEQFNSTYRVVSVLTVLHQDWLNGKEYKCKVSNKGLPSSIEKTISKAKGQPREPQVYTLPPSQEEMTKNQVSLTCLVKGFYPSDIAVEWESNGQPENNYKTTPPVLDSDGSFFLYSRLTVDKSRWQEGNVFSCSVMHEALHNHYTQKSLSLSLGK
light: B1 light
notes: VH and VL matched to Antibody A; Positions are Fc numbering as printed (EU index implied)
On to B3, for which the “Peak Width” value in assay [2] was found to be 2.7 min. The “Retention Time” value in assay [6] is 79.6 min.

B4: Antibody D (antibody, human IgG1, kappa, L234A L235A, V domains shown)
VH: EVQLLESGGGLVQPGGSLRLSCAASGFTFSSFAMSWVRQAPGKGLEWVSAISGSGGSTYSADSVRGRFTISRDNSKNTLYLQMNSLRAEDTAVYYCAKDQGDWDFLFDYWGQGTLVTVSS
VL: DIQMTQSPSFLSASVGDRVTITCRASQGISSSLAWYQQKPGKAPKLLIYTASTLQSGVPSRFSGSGSGTEFTLTISSLQPEDFATYYCQQLNYYPFTFGQGTKVEIKR
notes: Same HC as Antibody A
On to B4, for which the “EC50 (read off the curve)” value in assay [7] was ~0.07 µg/mL.
